Data from US12227762B2, “Spheroid culture method for neural stem cell” (Daegu Gyeongbuk Institute of Science and Technology, priority 2019, dated 2025).

Key:
[1] = test system: ORN differentiated from spheroid cultured progenitor cells; experiment: Calcium imaging assay of ORNs under odorant stimulation; type: cell-based, rat; conditions: for total calcium concentration stimulated by odor: odorant mixture
Protocol: To facilitate comparison with in vivo ORNs, the physiological properties of ORNs were validated using calcium imaging assays. The activity of the spheroid-cultured ORN progenitor cells was evaluated by transferring them to the laminin-coated plates, and measuring the change in fluorescence intensity by stimulating ORN activity with a mixture of odorant. In addition, the total-calcium concentration and response rate stimulated by odor were analyzed based on the results of calcium imaging.
Specifically, before performing the calcium imaging assay, the coverslip substrate was combined with a magnetic chamber (Live Cell instrument, Seoul, Korea), and the medium was replaced with KREBS Ringer's buffer containing 115 mM NaCl, 5.9 mM KCl, 2.5 mM CaCl2·2H2O, 1.2 mM MgCl2, 1.2 mM NaH2PO4, 10 mM HEPES sodium salt, and 10 mM D-glucose, and it was washed with PBS. Then, the cells were stained with fluo3-AM (life technologies, Waltham, USA). Fluorescence images of calcium markers were monitored using a confocal microscope. To stimulate the ORN, three odorants of 100 µM isovaleric acid (IVA), 2-isobutyl-3-methoxypyrazine (IBMP), and citralva, which are reported to activate the major signaling pathways of the ORN, and 100 µM of their mixture were applied to the magnetic chamber using a tubing connected to a syringe. The intracellular calcium concentration was calculated from the background corrected fluorescence ratio at 506/526 nm using a two-point calibration scheme and the equation [Ca]i=Kd(F0/Fs)(R−Rmin)/(Rmax−R).
Response rates were calculated as a ratio of the number of activated cell populations to the total number of cell populations in the confocal microscopy software.
Next, to determine the physiological properties of ORNs under single […] stimulation, the changes in intracellular calcium levels of ORNs and the changes in fluorescence intensity in cells a, b and c according to […] stimulation were monitored using 100 μM IBMP, 100 μM IVA, and 100 μM citralva.

rat ORN progenitor cells = experiment: Spheroid culture of ORN progenitor cells on REP-coated or laminin-coated plates (spheroid formation, diameter); type: cell-based
Protocol: For a comparison between the culture in a vessel coated with a recombinant protein (REP, TGPG[VGRGD(VGPVPG)6]20WPC) and culture in a vessel coated with laminin in whether neural stem cells are cultured into spheroids, the rat ORN progenitor cells primary cultured in Example 1-1 above were plated on REP-coated or laminin-coated cell culture plates.
Specifically, before plating the isolated ORN progenitor cells, 96-well plates (Thermo Scientific, Waltham, USA) were coated with 100 μl of 3 μM REP diluted with PBS, and they were cultured in the humidified 37° C. culture incubator containing 5% CO2 for 1 hour. The REP was prepared by the previously described method (Jeon W B, Park B H, Wei J, Park R W (2011) J Biomed Mater Res A 97 (2): 152-7). After culturing for 1 hour in the humidified incubator, the REP solution was aspirated, and 1×10^6 cells/ml of the isolated ORN progenitor cell suspension was placed and stored in the humidified incubator. MEM medium (Welgene, Gyeongsan, Republic of Korea) containing fresh 0.5% FBS (GE Healthcare lifesciences, Brussel, Belgium), 0.5% penicillin streptomycin (Thermo Fisher, Waltham, USA), kanamycin (SIGMA), and gentamicin (SIGMA) was replaced every 24 hours.
Next, in order to check the optimal conditions for spheroid formation, the diameter and shape of the spheroids were observed according to the seeding populations and the concentration of REP by measuring the diameter of the formed spheroids.

[2] = test system: spheroid ORN progenitor cells; experiment: qPCR of ORN developmental markers after differentiation of spheroid ORN progenitor cells on laminin-coated plate; type: cell-based, rat
Protocol: Spheroid ORN progenitor cells were differentiated and their developmental characteristics were monitored using qPCR and ICC.
Next, in order to analyze the differentiation of spheroid ORN progenitor cells in-depth, the transcriptional levels of ORN developmental markers such as ac3, omp, map2 and ncam, were analyzed by qPCR. Adenyl cyclase III (AC3), an important protein in the ORN, plays an important role in the olfactory signaling cascade. Olfactory marker protein (OMP) is also a protein found in fully matured ORNs. Microtubule associated protein 2 (MAP2) and NSE are expressed in differentiated neurons. Therefore, these markers were used as neuronal maturation markers. Neural cell adhesion molecule (NCAM) was used as a neural cell marker.

[3] = test system: spheroid ORN progenitor cells; experiment: qRT-PCR of stem cell markers in spheroid ORN progenitor cells; type: cell-based, rat; conditions: REP-coated plates
Protocol: In order to evaluate whether the spheroid-cultured ORN progenitor cells maintain a stemness, mRNA levels of stem cell markers were analyzed by quantitative real-time polymerase chain reaction (qRT-PCR). SOX2, Ki67, and nestin were used as specific marker genes for neural stem cells.
Specifically, total RNA was obtained from spheroid ORN progenitors using Trizol (Trizol® Reagent; Life technologies, Waltham, USA), and cDNA was synthesized by reverse transcription. qRT-PCR was performed under conditions of 40-45 repetitions at 95° C. for 30 sec, at 60° C. for 30 sec, and at 72° C. for 30 sec using a SYBR Green PCR Master Mix Kit (QuantiTect® SYBR® Green PCR Kit; QIAGEN, Hilden, Germany) on a Rotor-Gene Q (QIAGEN, Hilden, Germany). Primers of the sequences shown in Table 1 were purchased from GenoTeck (Daejeon, Korea) and Bionics (Daejeon, Korea). The housekeeping gene cyclophilin A was used as an internal standard.

[4] = test system: ORN differentiated from cryopreserved spheroid progenitor cells; experiment: Cryopreservation, thawing and differentiation of spheroid ORN progenitor cells, calcium imaging; type: cell-based, rat; conditions: 5 day spheroids cryopreserved 35 days, thawed on laminin
From the text: Since the neural stem cells cultured into spheroids need to be stably preserved for a long period of time for efficient use, in order to determine whether or not the cell storage period is extended through cryopreservation, spheroid-cultured ORN progenitor cells were cryopreserved for 35 days and thawed to test their physiological properties.

[5] = Surface properties of coated coverslips by AFM and SEM; type: physicochemical
Protocol: In order to determine effects of the REP on spheroid formation, surface properties of REP-coated coverslips were observed using atomic force microscopy (AFM) and scanning electronic microscopy (SEM).
Specifically, for AFM and SEM image observation, glass coverslips were coated with 3 μM REP and 25 μg/ml laminin. To coat the coverslip with REP, 3 μM REP solution was poured onto the coverslip and incubated at 37° C. for 1 hour. Thereafter, the coverslip was washed three times with warmed autoclaved distilled water at 37° C. and dried in a hood. To prepare a laminin-coated coverslip, 25 μg/ml laminin was diluted with autoclaved distilled water and poured over the coverslip and the coverslip was stored at 37° C. overnight. Thereafter, the coverslip was washed three times with pressurized distilled water and dried with a critical point dryer (EM CPD 300; Leica, Wetzlar, Germany). AFM (XE-150; Park Systems, Suwon, Republic of Korea) was performed in non-contact mode with a scanning speed of 0.5 Hz. Before SEM observation, the coverslip was coated with osmium (Osmium plasma coater, Vacuum Devices Inc., Mito, Japan), and SEM was performed at a chamber pressure of […].

[6] = test system: spheroid ORN progenitor cells; experiment: Calcein assay of cell viability of spheroid ORN progenitor cells; type: cell-based, rat; conditions: plate coated with 3 μM REP
Protocol: Since it is essential for neural stem cells to maintain cell viability while cultured into spheroids, a calcein assay was performed to evaluate the viability of ORN progenitor cells cultured into spheroids according to the cultivation time.
Specifically, calcein assay reagent (calcein red-orange, AM; Invitrogen, Carlsbad, USA) is used to evaluate cell viability. Spheroid ORN progenitor cells were washed three times with Dulbecco's phosphate-buffered saline (DPBS; Gibco® by Life Technologies™, Waltham, USA), treated with 3 μM calcein-AM solution, and cultivated at 37° C. for 30 minutes. Cell viability in each well was quantified by measuring optical density at 517 nm with a fluorescence reader (Gemini EM; Molecular Devices, San Jose, USA). The total OD517mm value was normalized to the value measured in spheroid ORN progenitor cells on the first day, and the decrease in fluorescence intensity indicates decrease in viability according to environmental conditions and cell loss according to changes of culture media.

[7] = day 3 spheroids, differentiated 72 hours on laminin-coated plate

## CC(C)CC(=O)O [IVA, isovaleric acid, reference compound]
[1]; single odorant, 100 μM
  activation of ORN cell a (intracellular calcium fluorescence): activated
  activation of ORN cell b (intracellular calcium fluorescence): activated
  activation of ORN cell c (intracellular calcium fluorescence): activated

## laminin [reference compound]
Rat ORN progenitor cells; plate coated with laminin
  culture outcome on coated plate: neurites outgrowth occurred and the cells were differentiated without spheroid culture
[2]; laminin group, days 3, 5 and 10
  expression level of nsetin: about 0.1 fold

## COc1nccnc1CC(C)C [IBMP, 2-isobutyl-3-methoxypyrazine, reference compound]
[1]; single odorant, 100 μM
  activation of ORN cell a (intracellular calcium fluorescence): activated

## CC(C)=CCCC(C)=CC#N [citralva, reference compound]
[1]; single odorant, 100 μM
  activation of ORN cell a (intracellular calcium fluorescence): activated
  activation of ORN cell c (intracellular calcium fluorescence): activated

B1: TGPG[VGRGD(VGVPG)6]20WPC (protein)
chain: TGPGVGRGDVGVPGVGVPGVGVPGVGVPGVGVPGVGVPGVGRGDVGVPGVGVPGVGVPGVGVPGVGVPGVGVPGVGRGDVGVPGVGVPGVGVPGVGVPGVGVPGVGVPGVGRGDVGVPGVGVPGVGVPGVGVPGVGVPGVGVPGVGRGDVGVPGVGVPGVGVPGVGVPGVGVPGVGVPGVGRGDVGVPGVGVPGVGVPGVGVPGVGVPGVGVPGVGRGDVGVPGVGVPGVGVPGVGVPGVGVPGVGVPGVGRGDVGVPGVGVPGVGVPGVGVPGVGVPGVGVPGVGRGDVGVPGVGVPGVGVPGVGVPGVGVPGVGVPGVGRGDVGVPGVGVPGVGVPGVGVPGVGVPGVGVPGVGRGDVGVPGVGVPGVGVPGVGVPGVGVPGVGVPGVGRGDVGVPGVGVPGVGVPGVGVPGVGVPGVGVPGVGRGDVGVPGVGVPGVGVPGVGVPGVGVPGVGVPGVGRGDVGVPGVGVPGVGVPGVGVPGVGVPGVGVPGVGRGDVGVPGVGVPGVGVPGVGVPGVGVPGVGVPGVGRGDVGVPGVGVPGVGVPGVGVPGVGVPGVGVPGVGRGDVGVPGVGVPGVGVPGVGVPGVGVPGVGVPGVGRGDVGVPGVGVPGVGVPGVGVPGVGVPGVGVPGVGRGDVGVPGVGVPGVGVPGVGVPGVGVPGVGVPGAAAVGRGDAVGVPGVGVPGVGVPGVGVPGVGVPGVGVPGAAWPC
modifications: TGPG[VGRGD(VGVPG)6]20WPC
notes: recombinant elastin-derived protein with VGVPG pentapeptide and RGD integrin receptor ligand, used as culture vessel coating
[1]; ORNs spheroid cultured for 3 days
  total calcium concentration stimulated by odor: 195.7 ± 24.0 nM
[1]; ORNs spheroid cultured for 5 days
  total calcium concentration stimulated by odor: 205.3 ± 24.9 nM
[1]; ORNs spheroid cultured for 10 days
  total calcium concentration stimulated by odor: 205.4 ± 22.3 nM
[1]; cultivation time 3 days
  response rate (activated cells / total cells): 29.9±2.5%
[1]; cultivation time 5 days
  response rate (activated cells / total cells): 27.6±3.0%
[1]; cultivation time 10 days
  response rate (activated cells / total cells): 28.1±4.2%
[3]; day 3
  normalized relative mRNA level of Ki67: 8.6±0.8 fold
  normalized relative mRNA level of SOX2: 8.4±0.8 fold
  normalized relative mRNA level of nestin: 11.7±1.1 fold
[3]; days 3, 5 and 10
  NSE expression: approximately 0.1 fold
[4]
  response rate stimulated by odor, compared to day 5: 72.3%
  total-calcium concentration stimulated by odor, compared to day 5: 72.5%
[5]; 3 μM REP vs 25 μg/ml laminin
  height and roughness relative to laminin-coated surface: 23.8 times
[5]; coverslip coated with 3 μM REP
  roughness (AFM): 148.3±15.9 nm
Rat ORN progenitor cells; 1 μM REP coating
  spheroid diameter: approximately 20 μm
  spheroid morphology: unstable spheroid morphology and cell aggregation
Rat ORN progenitor cells; 1 μM REP coating, 24 hours after cell inoculation
  mean diameter of spheroids: 24.2±0.7 μm
Rat ORN progenitor cells; 3 μM REP coating, 3rd day
  mean diameter of spheroids: 77.5±3.3 μm
Rat ORN progenitor cells; 3 μM REP coating, 24 hours after cell inoculation
  mean diameter of spheroids: 62.6±2.2 μm
Rat ORN progenitor cells; 5 μM REP coating, 5th day
  mean diameter of spheroids: 69.4±3.6 μm
Rat ORN progenitor cells; 5 μM REP coating, 24 hours after cell inoculation
  mean diameter of spheroids: 56.2±2.8 μm
Rat ORN progenitor cells; plate coated with REP
  time for ORN progenitor cells to aggregate to form spheroids: ≤ 24 h
[6]; 3rd day
  fluorescence intensity (cell viability) normalized to first day: 1.05±0.03 times
[6]; 10th day
  fluorescence intensity (cell viability) normalized to first day: 0.087±0.01 times
[2]; [7]
  expression level of ac3: 6.3±0.7 fold
  expression level of map2: 8.7±0.5 fold
  expression level of nse: 9.1±0.8 fold
  expression level of omp: 6.3±0.7 fold
